How the values were obtained:
[1] = molecular target: DgcY_(202–406) (Halomonas hydrothermalis Y2); test: MST; as a3, buffer containing 0.5 µM c-di-GMP
[2] = molecular target: DgcY_(202–406) (Halomonas hydrothermalis Y2)
[3] = molecular target: DgcY_(202–406) (Halomonas hydrothermalis Y2); test: MST; His-tagged protein labelled with Red-tris-NTA, ligand in twofold serial dilutions, PBS-T buffer, 25°C; no c-di-GMP
[4] = molecular target: DgcY_(202–406) (Halomonas hydrothermalis Y2); test: MST; as a3, buffer containing 2.5 µM c-di-GMP
[5] = molecular target: DgcY_(202–406) (Halomonas hydrothermalis Y2); remark: listed apart in the source
[6] = molecular target: DgcY_(202–406) (Halomonas hydrothermalis Y2); test: MST; as a3, buffer containing 15 µM c-di-GMP
[7] = molecular target: T1, DgcY222–406; test: microscale thermophoresis (MST); assay type: binding, Vreelandella hydrothermalis; settings: 25 °C, PBS-T; without HhmR; His-tag protein labelled with RED-tris-NTA
T1 construct: gene dgcY; GGDEF domain 222-406 only, TM and helical (HD) regions removed; pET24a, E. coli BL21(DE3), His-tag

[8] = molecular target: T2, DgcY202–406; test: microscale thermophoresis (MST); assay type: binding, Vreelandella hydrothermalis; settings: 25 °C, PBS-T; without HhmR; His-tag protein labelled with RED-tris-NTA
T2 construct: gene dgcY; intracellular fragment 202-406 (helical domain 203-221 + GGDEF 222-406) of 406-residue protein, TM domain removed; pET24a, E. coli BL21(DE3), His-tag, labelled by RED-tris-NTA for MST

## HhmR (natural protein)
[1]
  Kd: 0.105 µM
[2]
  c-di-GMP made by DgcY202-406 with HhmR and 15 µM added c-di-GMP, HPLC, 37°C, 8 h (38 µM without added c-di-GMP): 30 µM
[3]
  Kd: 8.96 µM
[4]
  Kd: 0.0905 µM
[5]
  c-di-GMP made by 10 µM DgcY202-406 with 15 µM HhmR, HPLC, 37°C, 2 to 8 h (with HhmR 9.47 µM at 3 h and 25.50 µM at 8 h; without HhmR 12.41 and 31.38 µM): 25.5 µM
[6]
  Kd: 0.0341 µM

## Nc1nc2c(ncn2[C@@H]2O[C@@H]3COP(=O)(O)O[C@H]4[C@@H](O)[C@H](n5cnc6c(=O)[nH]c(N)nc65)O[C@@H]4COP(=O)(O)O[C@H]3[C@H]2O)c(=O)[nH]1 [c-di-GMP]
[7]
  Kd: 1170 µM
[8]
  Kd: 53.2 µM

## HhmR_(90–305)^Q240D (domain or fragment)
[3]
  Kd: 0.571 µM

## HhmR_(90–305) (domain or fragment)
[3]
  Kd: 0.053 µM

— article PMC12421958, “Dual regulatory role of cyclic di-GMP via the DgcY/HhmR complex in salt response of Halomonas hydrothermalis Y2” (mBio, 2025)
